Changes are numbered by the printed parent chain. In names and notes the source's numbering stands.

B1: CglPafA K106R, K172R, K302R (proteasome accessory factor A from Corynebacterium glutamicum) (enzyme)
chain: STVESALTRRIMGIETEYGLTFVDGDSKKLRPDEIARRMFRPIVEKYSSSNIFIPNGSRLYLDVGSHPEYATAECDNLTQLINFEKAGDVIADRMAVDAEESLAREDIAGQVYLFKNNVDSVGNSYGCHENYLVGRSMPLKALGKRLMPFLITRQLICGAGRIHHPNPLDRGESFPLGYCISQRSDHVWEGVSSATTRSRPIINTRDEPHADSHSYRRLHVIVGDANMAEPSIALKVGSTLLVLEMIEADFGLPSLELANDIASIREISRDATGSTLLSLKDGTTMTALQIQQVVFEHASRWLEQRPEPEFSGTSNTEMARVLDLWGRMLKAIESGDFSEVDTEIDWVIKKKLIDRFIQRGNLGLDDPKLAQVDLTYHDIRPGRGLFSVLQSRGMIKRWTTDEAILAAVDTAPDTTRAHLRGRILKAADTLGVPVTVDWMRHKVNRPEPQSVELGDPFSAVNSEVDQLIEYMTVHAESYRS
B2: PafA K444A (enzyme)
chain: B1 chain with K443A
B3: PafA site 3 alanine double mutant (R442A, K444A) (enzyme)
chain: B1 chain with R441A, K443A
B4: PafA R137A, R218A (enzyme)
chain: B1 chain with R136A, R217A
B5: PafA R218A (enzyme)
chain: B1 chain with R217A
B6: PafA R137A (enzyme)
chain: B1 chain with R136A
B7: PafA R442A (enzyme)
chain: B1 chain with R441A
B8: PafA site 2 triple alanine variant (R137A/R207A/R218A) (enzyme)
chain: B1 chain with R136A, R206A, R217A
B9: PafA R207A (enzyme)
chain: B1 chain with R206A

The first experiment has as its target MtbFabD3KR-Strep (malonyl CoA-acyl carrier protein transacylase variant that lacks secondary pupylation sites) (Mycobacterium tuberculosis) (UniProt P9WNG5).
Regarding B1, the App. initial pupylation rate (in vitro pupylation of FabD, SDS-PAGE densitometry) came out at 10.4 h⁻¹.
With B2, the App. initial pupylation rate (in vitro pupylation of FabD, SDS-PAGE densitometry) was 2.65 h⁻¹.
The same measure, in the same setting: the figure for B3 is 2.64 h⁻¹; for B4 it is 0.17 h⁻¹.
Same read-out and setting: the figure for B5 is 5.05 h⁻¹; for B6 it is 3.1 h⁻¹; for B7 it is 2.87 h⁻¹.

For another experiment, the target named is MtbPanB-Strep (ketopantoate hydroxymethyltransferase) (Mycobacterium tuberculosis) (UniProt P9WIL7).
Take B8: the in vitro pupylation of PanB, reduction against PafA (gel densitometry) was found to be 70 % reduction.

The next experiment has the same target. The source holds these as a separate data set.
Consider B9, for which the in vitro pupylation of PanB, reduction against PafA (gel densitometry) was 50 % reduction.
